Assays:
3T3 fibroblasts = assay: qPCR analysis of shRNA effect in blocking IFN-γ response (GBP2 reporter); assay type: cell-based, mouse; details: 6 hrs IFN-γ treatment, cells expressing scrambled shRNA
[1] = tested on: primary mouse fibroblasts; assay: QPCR analysis of IFN-γ treated primary fibroblasts using target gene CXCL10 as readout; assay type: cell-based
Protocol: Total RNAs were isolated from FACS-sorted cells with Trizol followed by extraction using Direct-Zol RNA mini-prep Kit (Zymo research). For cDNA synthesis, equal amounts of RNA were reverse-transcribed by Oligo-dT (Vazyme, R222-01). Expression levels were normalized to the expression of PPIB. Real time PCR was conducted using a CFX96TM Real-Time system (Bio-RAD) with Power SYBRR Green PCR Master Mix (Life Technologies). All primer pairs were designed for the same cycling conditions: 10 min at 95° C. for initial denaturing, 40 cycles of 10 s at 95° C. for denaturing, 30 s at 62° C. for annealing, and 10 s at 65° C. for extension. The primers were designed to produce a product spanning exon-intron boundary in each of the target genes.
Primary fibroblasts isolated from WT or IFNGR1 KO newborn mice dorsal skin were infected with lentivirus expressing shRNA and RFP in vitro. The RFP+ fibroblasts were then intradermally injected into P56 mice tail skin. The presence and location of injected cells were examined 2 weeks later. […] Primary mouse fibroblasts were treated with IFN-γ of increasing dosage and duration time in vitro. Treatment time ranges from 6 hrs to 48 hrs; and IFN-γ concentration gradients range from 5 U/mL to 200 U/mL. […] Primary mouse fibroblasts were treated with increasing dosage of IFN-γ for 6 hrs in vitro. IFN-γ concentration gradients range from 5 U/mL to 1000 U/mL. […]

[2] = tested on: activated CD8+OT1 T cells; assay: T cell transwell migration assay with recombinant chemokines; assay type: cell-based, mouse; details: recombinant protein at increasing concentrations in lower chamber, 3 hr incubation
Protocol: Transwell migration of lymphocytes was performed with mature CTLs and concentrated fibroblast conditioned medium. In brief, splenocytes isolated from OT-1 mice were stimulated with OVA257-264 for 3 days in the presence of 10 ng/mL IL2. Cells were centrifuged and cultured in fresh medium containing 10 ng/mL IL2 for 1 more day, after which most of the cells in the culture were CTLs. To measure CD8+ T cell cytotoxicity, B16F10 expressing OVA peptide was mixed in the killing medium at the ratios of 1:1. After 6 hs, the cytotoxic efficiency was confirmed by B16F10 cell survival.
To further identify the secreted factors involved in this process, we first performed RNA-seq analysis of fibroblasts from WT and IFNGR1 KO mice at Day 33 after vitiligo induction, alongside WT mice without vitiligo induction (FIG. 6C). […] Next we compared the single cell transcriptome data of progressive state vitiligo patients fibroblasts and healthy donors fibroblasts. Unsupervised clustering performed by spectral clustering method separates fibroblasts into 4 sub-clusters in healthy donors and 5 sub-clusters in progressive state vitiligo patients (FIG. 6D). […] Comparison of the human and mouse vitiligo fibroblasts specific secreted protein gene signatures, we identified 29 overlapped genes. Among them 11 are conserved major histocompatibility complex genes and 6 are chemokines, including CCL5, CCL8, CCL19, CXCL3, CXCL9 and CXCL10 (FIG. 6F-6G). […]
RFP expressing WT or IFNGR1 KO fibroblasts were intradermally injected into the tail skin of IFNGR1 KO mice. After vitiligo induction on the host mice, CD8+ T cell infiltration was analyzed by whole-mount immunofluorescent staining and quantification. […] Cells were collected from both chambers and counted by flow cytometry after 3 hr incubation. […] After 3 hr incubation, CD8+ T cell migration index was calculated by dividing the number of migrated cells (cells in lower chamber) using the number of migrated plus unmigrated cells (cells in upper chamber+lower chamber).

B1: IFN-γ: recombinant interferon gamma used to treat fibroblasts in vitro (protein, UniProt P01580 23-155, looked up)
Interferon gamma: HGTVIESLESLNNYFNSSGIDVEEKSLFLDIWRNWQKDGDMKILQSQIISFYLRLFEVLKDNQAISNNISVIESHLITTFFSNSKAKKDAFMSIAKFEVNNPQVQRQAFNELIRVVHQLLPESSLRKRKRSRC
3T3 fibroblasts
  GBP2 expression level: significantly increased
[1]; 6 hrs in vitro, gradient 5 U/mL to 1000 U/mL
  IFN-γ concentration inducing maximum activation (CXCL10 expression level): 1000 U/mL
[1]; IFN-γ 5 U/mL to 200 U/mL, 6 hrs to 48 hrs
  CXCL10 expression: induced by IFN-γ in a dosage dependent manner

B2: CXCL10: recombinant chemokine protein added to lower chamber of transwell (protein, UniProt P17515 22-98, looked up)
C-X-C motif chemokine 10: IPLARTVRCNCIHIDDGPVRMRAIGKLEIIPASLSCPRVEIIATMKKNDEQRCLNPESKTIKNLMKAFSQKRSKRAP
[2]
  CD8+ T cell migration (migration index): induce CD8+ T cell migration in a dosage dependent manner

B3: CCL19: recombinant chemokine protein added to lower chamber of transwell (protein, UniProt O70460 26-108, looked up)
C-C motif chemokine 19: GANDAEDCCLSVTQRPIPGNIVKAFRYLLNEDGCRVPAVVFTTLRGYQLCAPPDQPWVDRIIRRLKKSSAKNKGNSTRRSPVS
[2]
  CD8+ T cell migration (migration index): induce CD8+ T cell migration in a dosage dependent manner

B4: CXCL9: recombinant chemokine protein added to lower chamber of transwell (protein, UniProt P18340 22-126, looked up)
C-X-C motif chemokine 9: TLVIRNARCSCISTSRGTIHYKSLKDLKQFAPSPNCNKTEIIATLKNGDQTCLDPDSANVKKLMKEWEKKISQKKKQKRGKKHQKNMKNRKPKTPQSRRRSRKTT
[2]
  CD8+ T cell migration (migration index): induce CD8+ T cell migration in a dosage dependent manner

— patent US20230292718A1, “METHOD FOR CONSTRUCTING MODEL OF VITILIGO AND THE USE OF THE MODEL” (NATIONAL INSTITUTE OF BIOLOGICAL SCIENCES, BEIJING, priority 2020, published 2023)
